Assay [1] deals with Human Respiratory Syncytial Virus Matrix (M) protein, GAL4 fusion (Human Respiratory Syncytial Virus) (UniProt P0DOE7). The assay can be described thus: two-hybrid.
The target of assay [2] is Adaptor protein complex 3 medium subunit (AP-3Mu3A), GAL4 fusion (human (HeLa cDNA library)) (UniProt Q9Y2T2). Description: two-hybrid.
UniProt Q9Y2T2, sequence (Q9Y2T2 whole entry, the tested form may be a part, one chain of several): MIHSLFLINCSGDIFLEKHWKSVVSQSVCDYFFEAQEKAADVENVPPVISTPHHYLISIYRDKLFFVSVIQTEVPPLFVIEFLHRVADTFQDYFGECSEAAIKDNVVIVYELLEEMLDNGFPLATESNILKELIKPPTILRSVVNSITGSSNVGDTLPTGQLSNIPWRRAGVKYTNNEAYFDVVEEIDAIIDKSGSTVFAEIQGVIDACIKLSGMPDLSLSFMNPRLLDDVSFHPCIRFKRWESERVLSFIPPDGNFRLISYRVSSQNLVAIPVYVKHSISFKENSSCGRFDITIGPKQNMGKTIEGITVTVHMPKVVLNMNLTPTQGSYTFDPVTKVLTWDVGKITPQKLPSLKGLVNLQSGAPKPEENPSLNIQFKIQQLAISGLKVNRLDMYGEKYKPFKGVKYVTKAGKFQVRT

With “Adaptor protein complex 3 medium subunit (AP-3Mu3A), GAL4 fusion (from UniProt Q9Y2T2 1-418) (natural protein)”, in assay [1], the beta-Galactosidase activity came to 458 units.

B1: Human Respiratory Syncytial Virus Matrix (M) protein, GAL4 fusion (natural protein)
chain: METYVNKLHEGSTYTAAVQYNVLEKDDDPASLTIWVPMFQSSMPADLLIKELANVNILVKQISTPKGPSLRVMINSRSAVLAQMPSKFTICANVSLDERSKLAYDVTTPCEIKACSLTCLKSKNMLTTVKDLTMKTLNPTHDIIALCEFENIVTSKKVIIPTYLRSISVRNKDLNTLENITTTEFKNAITNAKIIPYSGLLLVITVTDNKGAFKYIKPQSQFIVDLGAYLEKESIYYVTTNWKHTATRFAIKPMED
As to B1, the beta-Galactosidase activity in assay [2] turned out to be 420 units.

The values are drawn from PMC5640227.
